Results taken from patent publication US20190382481A1 (Janssen / Centocor, published 2019).
Residue numbers refer to the chain shown, from its start.

B1: C33B914 (antibody, V domains shown)
VH: QVQLVESGGGVVQPGRSLRLSCAASGFTFSYYGMHWVRQAPDKGLEWVAVIWFDGNNKYYADSVKGRFTISRDNSKNTLYLQMNSLRAEDTAVYYCARDRELLFDYWGQGTLVTVSS
VL: SYELTQPPSVSVSPGQTASITCSGDELGDMYACWYQQKPGQSPLVVIYQDSKRPSGIPERFSGSNSGNTATLTISGTQAMDEAAYYCQTWDTRIAVFGGGTNLTVLG
notes: OMNIMouse mAb; HC C33H254, LC C33L120 (same IDs as C33B906); also called C33F552
B2: C33B913 (antibody, V domains shown)
VH: EVQLLESGGGLVQPGGSLKLSCTASGFTFRSYAMSWVRQAPGKGLEWVSAINGYGDGRYYADSVKGRFTISRDNSKNTLYLQMNSLRAEDTAVYSCAKDQGFGELFFDYWGQGTLVTVSS
VL: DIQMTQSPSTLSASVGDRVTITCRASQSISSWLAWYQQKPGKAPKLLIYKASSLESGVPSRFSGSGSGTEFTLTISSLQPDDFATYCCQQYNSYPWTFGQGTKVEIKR
notes: OMNIMouse mAb; HC C33H253, LC C33L119 (same IDs as C33B905); also called C33F551
B3: C33B915 (antibody, V domains shown)
VH: EVQLVESGGGLVQPGRSLRLSCAASGFTFDDYAMHWVRQVPGEGLEWVSGISWNGGDMVYADSVKGRFTISRDNAKNSLYLQMNSLRPEDTALYYCVKDMPYFDFLTGSDYYYYGMDVWGQGTTVTVSS
VL: SYELTQPPSVSVSPGQTASITCSGDNLGNEHVCWYHQKPGQSPVLVIYQNNKRPSGIPERFSGSNSGNTATLSISGTQATDEADYYCQAWDSTTAVFGGGTKLTVLG
notes: OMNIMouse mAb; HC C33H255, LC C33L121 (same IDs as C33B907); also called C33F553
B4: C3CB8 (bispecific antibody, human IgG4 S228P, lambda, F234A L235A)
heavy 1: not shown
light 1: SYELTQPPSVSVSPGQTASITCSGHKLGDKYACWYQQKPGQSPVVVIYKDSKRPSGIPERFSGSNFGNTATLTISGTQAMDEADYYCQAWDSSTVVFGGGTKLTVLGQPKAAPSVTLFPPSSEELQANKATLVCLISDFYPGAVTVAWKADSSPVKAGVETTTPSKQSNNKYAASSYLSLTPEQWKSHRSYSCQVTHEGSTVEKTVAPTECS
heavy 2: EVQLVESGGGLVQPGGSLRLSCAASGFTFNTYAMNWVRQAPGKGLEWVARIRSKYNNYATYYAASVKGRFTISRDDSKNSLYLQMNSLKTEDTAVYYCARHGNFGNSYVSWFAYWGQGTLVTVSSASTKGPSVFPLAPCSRSTSESTAALGCLVKDYFPEPVTVSWNSGALTSGVHTFPAVLQSSGLYSLSSVVTVPSSSLGTKTYTCNVDHKPSNTKVDKRVESKYGPPCPPCPAPEAAGGPSVFLFPPKPKDTLMISRTPEVTCVVVDVSQEDPEVQFNWYVDGVEVHNAKTKPREEQFNSTYRVVSVLTVLHQDWLNGKEYKCKVSNKGLPSSIEKTISKAKGQPREPQVYTLPPSQEEMTKNQVSLTCLVKGFYPSDIAVEWESNGQPENNYKTTPPVLDSDGSFLLYSKLTVDKSRWQEGNVFSCSVMHEALHNHYTQKSLSLSLGK
light 2: QTVVTQEPSLTVSPGGTVTLTCRSSTGAVTTSNYANWVQQKPGQAPRGLIGGTNKRAPGTPARFSGSLLGGKAALTLSGVQPEDEAEYYCALWYSNLWVFGGGTKLTVLGQPKAAPSVTLFPPSSEELQANKATLVCLISDFYPGAVTVAWKADSSPVKAGVETTTPSKQSNNKYAASSYLSLTPEQWKSHRSYSCQVTHEGSTVEKTVAPTECS
B5: C3CB14 (bispecific antibody, human IgG4 S228P, lambda, F234A L235A)
heavy 1: not shown
light 1: B4 light 1 with H25D, D29N, C33S, V45L, K49Q, S51T, F61V, F66S, Y86H
heavy 2: B4 heavy 2
light 2: B4 light 2
B6: C3CB16 (bispecific antibody, human IgG4 S228P, lambda, F234A L235A)
heavy 1: not shown
light 1: not shown
heavy 2: B4 heavy 2
light 2: B4 light 2
B7: C3CB11 (bispecific antibody, human IgG4 S228P, lambda, F234A L235A)
heavy 1: not shown
light 1: B4 light 1 with H25D, V45L, K49Q, S51G, T69K, S92R, S93N
heavy 2: B4 heavy 2
light 2: B4 light 2
B8: C3CB5 (bispecific antibody, human IgG4 S228P, lambda, F234A L235A)
heavy 1: not shown
light 1: B4 light 1 with H25D, A32V, Y48H, K49Q, S51R
heavy 2: B4 heavy 2
light 2: B4 light 2
B9: C3CB87 (bispecific antibody, human IgG4 S228P, kappa, lambda, F234A L235A)
heavy 1: not shown
light 1: not shown
heavy 2: B4 heavy 2
light 2: B4 light 2
B10: C3CB90 (bispecific antibody, human IgG4 S228P, lambda, F234A L235A)
heavy 1: not shown
light 1: SYELTQPPSVSVSPGQTASITCSGDELGDMYACWYQQKPGQSPLVVIYQDSKRPSGIPERFSGSNSGNTATLTISGTQAMDEAAYYCQTWDTRIAVFGGGTNLTVLGQPKAAPSVTLFPPSSEELQANKATLVCLISDFYPGAVTVAWKADSSPVKAGVETTTPSKQSNNKYAASSYLSLTPEQWKSHRSYSCQVTHEGSTVEKTVAPTECS
heavy 2: B4 heavy 2
light 2: B4 light 2
B11: C3CB91 (bispecific antibody, human IgG4 S228P, lambda, F234A L235A)
heavy 1: not shown
light 1: SYELTQPPSVSVSPGQTASITCSGDNLGNEHVCWYHQKPGQSPVLVIYQNNKRPSGIPERFSGSNSGNTATLSISGTQATDEADYYCQAWDSTTAVFGGGTKLTVLGQPKAAPSVTLFPPSSEELQANKATLVCLISDFYPGAVTVAWKADSSPVKAGVETTTPSKQSNNKYAASSYLSLTPEQWKSHRSYSCQVTHEGSTVEKTVAPTECS
heavy 2: B4 heavy 2
light 2: B4 light 2
B12: C3CB89 (bispecific antibody, human IgG4 S228P, kappa, lambda, F234A L235A)
heavy 1: not shown
light 1: not shown
heavy 2: B4 heavy 2
light 2: B4 light 2
B13: C3CB10 (bispecific antibody, human IgG4 S228P, lambda, F234A L235A)
heavy 1: not shown
light 1: B4 light 1 with H25D, K49Q, S51R
heavy 2: B4 heavy 2
light 2: B4 light 2
B14: C33B909 (antibody, V domains shown)
VH: EVQLVESGGGLVQPGRSLRLSCVASGFTFDDYAIHWVRQAPGKGLEWVSGLSWNGGNIGYADSVKGRFTISRDNAKNSLYLQMNSLKTEDTAFYYCTKDTPYGDYFDYWGQGTLVTVSS
VL: DIQMTQSPSSVWASVGDRVTITCRASQGISSWLAWYQQQPGKAPNLLIYRSSSLQSGVPSRFSGSGSGTDFTLTISSLQPEDFATYYCQQDNSFPYTFGQGTKLEIKR
notes: OMNIMouse mAb; HC C33H249, LC C33L115 (same IDs as C33B901); the campaign was cloned into both IgG1 and IgG4 PAA
B15: C33B910 (antibody, V domains shown)
VH: B14 VH with V23A, A24G, M83L, T97A, T100S
VL: B14 VL with V11E, Q39K, N45K, R50G, S51A, L54W
notes: OMNIMouse mAb; HC C33H250, LC C33L116 (same IDs as C33B902)

What was measured:
Cyno CD33 full length = molecular target: T1, Cyno CD33 full length (cynomolgus monkey); assay: flow cytometry on HEK293F cells expressing cyno CD33
T1 construct: Stably expressed on HEK293F cells by lentiviral transduction; also called Cyno CD33 (on HEK293F cells)
Protocol: (§1) The purified antibodies were assessed for binding to stably transfected HEK293F cells expressing human CD33 or cyno CD33 (generation described above) along with the parental HEK293F as negative control. Cells were harvested from tissue culture flasks using non-enzymatic dissociation buffer (Thermo Scientific). The flasks were rinsed twice with PBS and dissociation buffer was added to the flask, and the flask was incubated for 10 minutes at 37° C. until the cells became non-adherent. The cells were centrifuged at 300 g for 5 minutes and resuspended at 1.0×10⁶ cells/ml in staining buffer (Becton Dickinson; Franklin Lakes, N.J.). 50,000 cells/well of each cell type was plated in 50 μl of staining buffer in round bottom plates (Becton Dickinson). 50 μl of 2× concentration test mAb or isotype control was added at 3 dilutions and zero (120 nM, 12 nM, and 1.2 nM and 0 nM), and the resultant solution was incubated 30 min at 4° C. 100 μl staining buffer was added to all wells of each plate, the plates were spun at 300 g for 5 min, the buffer was removed, 200 μl staining buffer was added to all wells of each plate, the plates were spun at 300 g for 5 min, and the buffer was removed. 50 μl of 2 μg/ml of Goat-anti-human Fc AF647 secondary antibody (Jackson Immunoresearch; West Grove, Pa.) was added to all wells of the plates, and the plates were incubated for 30 min at 4° C. 100 μl staining buffer was added to all wells of the plates, the plates were spun at 300 g for 5 min, and the buffer was removed. 200 μl running buffer (running buffer is Staining buffer, 1 mM EDTA, 0.1% Pluronic Acid) was added to all wells of the plates, the plates were spun at 300 g for 5 min, and the buffer was removed. 30 ul running buffer containing Sytox Green live/dead dye (ThermoFisher) was added to all wells with cells and the plates were read on an iQue IntelliCyt flow cytometer. Cells were gated on forward vs. side scatter to eliminate debris, then on singlets and then on live cells which excluded the Sytox stain. Antibody binding was assessed by the mean fluorescence intensity in the AF647 channel. […]

Human CD33 full length = molecular target: T2, Human CD33 full length (human, UniProt P20138 18-364); assay: flow cytometry on HEK293F cells expressing human CD33
T2 construct: Stably expressed on HEK293F cells by lentiviral transduction; also called Human CD33 (on HEK293F cells)
Protocol: as §1

human CD33 [1] = molecular target: T3, human CD33 (human, UniProt P20138 18-364); assay: cell-based or functional assay
human CD33 [2] = molecular target: T3, human CD33; assay: cell-based or functional assay; remark: listed apart in the source

T2 sequence (P20138 18-364 limits assumed): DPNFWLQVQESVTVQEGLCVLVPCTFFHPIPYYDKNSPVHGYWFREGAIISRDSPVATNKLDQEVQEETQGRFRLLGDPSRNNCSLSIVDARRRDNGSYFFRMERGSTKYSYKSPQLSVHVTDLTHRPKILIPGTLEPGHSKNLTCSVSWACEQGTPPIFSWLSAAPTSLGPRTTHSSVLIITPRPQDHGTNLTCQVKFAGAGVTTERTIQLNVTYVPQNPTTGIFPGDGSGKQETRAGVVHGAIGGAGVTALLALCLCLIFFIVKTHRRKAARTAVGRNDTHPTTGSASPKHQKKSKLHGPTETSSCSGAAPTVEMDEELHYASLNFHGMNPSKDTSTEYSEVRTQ
T3 sequence (P20138 18-364 limits assumed): as above
T1 sequence (chain, as listed by the source limits assumed): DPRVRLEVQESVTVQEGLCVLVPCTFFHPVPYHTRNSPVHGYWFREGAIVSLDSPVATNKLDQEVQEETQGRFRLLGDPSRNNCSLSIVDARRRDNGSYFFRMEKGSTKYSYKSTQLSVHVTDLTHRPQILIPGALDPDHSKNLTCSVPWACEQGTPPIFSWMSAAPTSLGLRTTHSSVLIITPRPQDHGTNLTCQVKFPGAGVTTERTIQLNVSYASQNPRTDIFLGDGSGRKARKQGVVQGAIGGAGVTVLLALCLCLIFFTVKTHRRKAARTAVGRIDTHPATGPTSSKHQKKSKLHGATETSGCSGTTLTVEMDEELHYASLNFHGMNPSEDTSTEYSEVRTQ

Binder	mean fluorescence intensity at 0.6 nM mAb (Cyno CD33 full length) [MFI]	mean fluorescence intensity at 6 nM mAb (Cyno CD33 full length) [MFI]	mean fluorescence intensity at 60 nM mAb (Cyno CD33 full length) [MFI]	mean fluorescence intensity at 0.6 nM mAb (Human CD33 full length) [MFI]	mean fluorescence intensity at 6 nM mAb (Human CD33 full length) [MFI]	mean fluorescence intensity at 60 nM mAb (Human CD33 full length) [MFI]	Cytotoxicity EC50 (nM), T-cell mediated cytotoxicity of MOLM-13 (human CD33 [1]) [nM]	also measured
B1	22100	33400	45000	153000	315000	304000	–	–
B2	35200	36900	40700	205000	409000	519000	–	–
B3	36200	35700	37500	138000	363000	390000	–	–
B4	–	–	–	–	–	–	0.513	–
B5	–	–	–	–	–	–	0.538	–
B6	–	–	–	–	–	–	0.667	–
B7	–	–	–	–	–	–	–	Primary AML Cell Killing EC50 (nM), ex vivo AML patient whole blood (human CD33 [2]): 3.96 nM
B8	–	–	–	–	–	–	1.26	–
B9	–	–	–	–	–	–	0.067	–
B10	–	–	–	–	–	–	10.6	–
B11	–	–	–	–	–	–	0.35	–
B12	–	–	–	–	–	–	0.41	–
B13	–	–	–	–	–	–	0.473	–
B14	116	135	180	154	170	176	–	–
B15	117	135	202	151	183	214	–	–
